Key:
[1] = biological target: peptide containing H3 residues 1-20
[2] = biological target: H3 peptide containing residues 15-30
[3] = biological target: full-length free histone H3 (individual core histone)
[4] = biological target: GST-fusion histone H3 peptide (residues 1-57), wild-type
[5] = biological target: GST-fusion histone H3 peptide (residues 1-57), K27R mutant [GST: P08515]

B1: recombinant wild-type vSET expressed in E. coli BL21 (protein)
chain: MFNDRVIVKKSPLGGYGVFARKSFEKGELVEECLCIVRHNDDWGTALEDYLFSRKNMSAMALGFGAIFNHSKDPNARHELTAGLKRMRIFTIKPIAIGEEITISYGDDYWLSRPRLTQN
[1]
  methylation activity with H3 peptides (14C-methyl-SAM): Like vSET, these viral SET proteins only methylated a H3 peptide containing residues 15-30 but not a peptide containing H3 residues 1-20
[2]
  methylation activity with H3 peptides (14C-methyl-SAM): Like vSET, these viral SET proteins only methylated a H3 peptide containing residues 15-30 but not a peptide containing H3 residues 1-20
[3]
  histone methyltransferase activity: confirming its activity for full-length free H3 and H3 within the nucleosome, but not other core histones
[4]
  methylation assay (methyl transfer from 14C-methyl-SAM): The methylation assay showed that vSET was only active when H3 contained K27
[5]
  methylation assay (methyl transfer from 14C-methyl-SAM): The methylation assay showed that vSET was only active when H3 contained K27
Core histone H2A
  histone methyltransferase activity: confirming its activity for full-length free H3 and H3 within the nucleosome, but not other core histones
Core histone H4
  histone methyltransferase activity: confirming its activity for full-length free H3 and H3 within the nucleosome, but not other core histones
Core histone H2B
  histone methyltransferase activity: confirming its activity for full-length free H3 and H3 within the nucleosome, but not other core histones

Reference: US20110123511
